Article PMC8905165

Target: GMPCPP microtubules containing 7% rhodamine-tubulin
Experiment: single-molecule TIRF microscopy on immobilised microtubules; GMPCPP microtubules held on the coverslip by anti-β-tubulin antibodies, motors in solution (CENP-E483-2mNeon 50 nM, CENP-E483LZ-2mNeon 5 nM, CENP-E754-2mNeon 3.5 nM, CENP-EFL-mNeon 12.5 nM; landing rates at 3.5 nM); 80 mM PIPES pH 6.9, 5 mM MgCl2, 2 mM ATP, 1 mM DTT, oxygen scavenger mix; 30°C; residency time is the decay constant of a single-exponential fit

residency time on the microtubule [s] | landing rate (events µm^−1 min^−1) | Substance
6.36 | – | CENP-E483LZ-2mNeon (from UniProt Q02224 1-483)
37.1 | 0.147 | full-length human CENP-E-mNeonGreen, Q02224 1-2701
